In patent US20240400675A1 (published 2024):
Blank lines part the entries; values can stand above or below the binder they belong to.

Assays:
human CLDN6 [1] = biological target: T1, human CLDN6 (human, UniProt P56747 1-220); experiment: flow cytometry on PA-1 cells engineered to a range of CLDN6 densities
T1 construct: also called Claudin 6
T1 sequence: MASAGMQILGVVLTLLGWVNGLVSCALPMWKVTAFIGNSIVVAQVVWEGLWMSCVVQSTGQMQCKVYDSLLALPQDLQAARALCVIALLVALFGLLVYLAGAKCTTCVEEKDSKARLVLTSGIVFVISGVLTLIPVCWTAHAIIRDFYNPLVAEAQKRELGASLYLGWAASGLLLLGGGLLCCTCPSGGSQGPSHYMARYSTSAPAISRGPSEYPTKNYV
Description: PA-1 cells were engineered to stably express a range of CLDN6 antigen densities. […] Cells were washed, stained with a secondary antibody, and washed again prior to being analyzed using flow cytometry.
Cell lines were then washed, stained with secondary antibody, and washed again before measuring binding by flow cytometry.

human CLDN8 = biological target: T2, human CLDN8 (human, UniProt P56748 1-225); experiment: flow cytometry on transiently transfected 293 cells, 100 ug/ml
T2 construct: whole, on cells
T2 sequence (looked up): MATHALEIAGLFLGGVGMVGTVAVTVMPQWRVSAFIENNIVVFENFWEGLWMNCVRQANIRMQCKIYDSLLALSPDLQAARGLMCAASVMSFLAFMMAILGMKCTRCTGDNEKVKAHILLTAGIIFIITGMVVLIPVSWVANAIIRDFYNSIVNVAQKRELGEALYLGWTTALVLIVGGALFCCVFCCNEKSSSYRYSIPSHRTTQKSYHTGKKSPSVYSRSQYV
Protocol: (§1) 293 cells were transiently transfected to express CLDN3, CLDN4, CLDN8, or CLDN17. Cells were plated and each test article was added to each cell line at a 100 μg/ml dose. After 1 hour incubation at 4° C., cells were washed and a secondary AF647 antibody was added. Cells were incubated at 4° C. for another hour, followed by additional washing and then analysis by flow cytometry.
as §1, with “with” for “to express”, “cytometry. […] This highlights the potential of CLDN6 binding domains having specificity for binding not only CLDN6 but also other claudin family members.” for “cytometry.”

human CLDN17 = biological target: T3, human CLDN17 (human, UniProt P56750 1-224); experiment: as above
T3 construct: whole, on cells
T3 sequence (looked up): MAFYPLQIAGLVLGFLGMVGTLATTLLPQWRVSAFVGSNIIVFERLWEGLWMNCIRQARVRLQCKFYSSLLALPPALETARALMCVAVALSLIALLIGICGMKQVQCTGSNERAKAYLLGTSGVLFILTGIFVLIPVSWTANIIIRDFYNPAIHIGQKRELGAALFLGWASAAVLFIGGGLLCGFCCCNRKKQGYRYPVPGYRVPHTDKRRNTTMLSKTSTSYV
Protocol: as §1
as §1, with “with” for “to express”, “cytometry. […] This highlights the potential of CLDN6 binding domains having specificity for binding not only CLDN6 but also other claudin family members.” for “cytometry.”

human CLDN9 = biological target: T4, human CLDN9 (human, UniProt O95484 1-217); experiment: flow cytometry on HEK293E cells expressing CLDN9
T4 construct: also called CLND9
T4 sequence: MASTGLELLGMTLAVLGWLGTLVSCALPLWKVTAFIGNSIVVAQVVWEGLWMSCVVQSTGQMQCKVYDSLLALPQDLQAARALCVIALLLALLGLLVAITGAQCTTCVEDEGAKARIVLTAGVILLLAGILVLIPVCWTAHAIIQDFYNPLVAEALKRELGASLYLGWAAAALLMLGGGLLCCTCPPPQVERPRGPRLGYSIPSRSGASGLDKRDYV
Protocol: (§2) The following experiments used to screen CLDN6 binding domains were generally performed as follows. HEK293T or HEK293E cells were respectively stably or transiently transfected to express CLDN6, CLND9, or other targets of interest. 48 hours post transfection, cells were harvested and incubated with dilutions of the indicated test articles for 1 hour at 4° C. […] Binding was then assessed via flow cytometry.

human CLDN6 [2] = biological target: T1, human CLDN6; experiment: flow cytometry on HEK293E cells expressing CLDN6 or CLDN9; EC50 on CLDN9 cells divided by EC50 on CLDN6 cells
Protocol: as §2

binding result (human CLDN6 [1]): binds
B1: XENP37541 (Xtend analog to XENP37227) (bispecific antibody)
heavy 1: QVQLVQSGAEVKKPGASVKVSCKTSGYTFTEYTMHWVRQAPGQSLEWMGGIDPNNANTHYNQKFQGRVTITVDKSASTAYMELSSLRSEDTAVYYCARIYYFGRLYFDFWGAGTLVTVSSASTKGPSVFPLAPSSKSTSGGTAALGCLVKDYFPEPVTVSWNSGALTSGVHTFPAVLQSSGLYSLSSVVTVPSSSLGTQTYICNVNHKPSDTKVDKKVEPKSCDKTHTCPPCPAPPVAGPSVFLFPPKPKDTLMISRTPEVTCVVVDVKHEDPEVKFNWYVDGVEVHNAKTKPREEEYNSTYRVVSVLTVLHQDWLNGKEYKCKVSNKALPAPIEKTISKAKGQPREPQVYTLPPSREEMTKNQVSLTCDVSGFYPSDIAVEWESDGQPENNYKTTPPVLDSDGSFFLYSKLTVDKSRWEQGDVFSCSVLHEALHSHYTQKSLSLSPGK
heavy 2: QVQLVQSGAEVKKPGASVKVSCKTSGYTFTEYTMHWVRQAPGQSLEWMGGIDPNNANTHYNQKFQGRVTITVDKSASTAYMELSSLRSEDTAVYYCARIYYFGRLYFDFWGAGTLVTVSSASTKGPSVFPLAPSSKSTSGGTAALGCLVKDYFPEPVTVSWNSGALTSGVHTFPAVLQSSGLYSLSSVVTVPSSSLGTQTYICNVNHKPSNTKVDKKVEPKSCGGGGSGGGGSQAVVTQEPSLTVSPGGTVTLTCGSSTGAVTTSNYANWVQQKPGKSPRGLIGGTNKRAPGVPARFSGSLLGGKAALTISGAQPEDEADYYCALWYSNHWVFGGGTKLTVLGKPGSGKPGSGKPGSGKPGSEVQLVESGGGLVQPGGSLRLSCAASGFTFSTYAMNWVRQAPGKGLEWVGRIRSKANNYATYYADSVKGRFTISRDDSKNTLYLQMNSLRAEDTAVYYCVRHGNFGDSYVSWFAYWGQGTLVTVSSGGGGSGGGGSKTHTCPPCPAPPVAGPSVFLFPPKPKDTLMISRTPEVTCVVVDVKHEDPEVKFNWYVDGVEVHNAKTKPREEQYNSTYRVVSVLTVLHQDWLNGKEYKCKVSNKALPAPIEKTISKAKGQPREPQVYTLPPSREQMTKNQVKLTCLVKGFYPSDIAVEWESNGQPENNYKTTPPVLDSDGSFFLYSKLTVDKSRWQQGNVFSCSVLHEALHSHYTQKSLSLSPGK
light: not shown
notes: 2+1 Fab2-scFv-Fc, C6-30_H1.9_L1.187, CD3 High-Int #1, with Xtend Fc (M428L/N434S); copies: 1 + 1 + 2

binding result (human CLDN8): binds | binding result (human CLDN17): binds
B2: XENP37217, CLDN6 x CD3 bispecific with comparator CLDN6 binding domain Comp_CHO02 in the 2+1 Fab2-scFv-Fc format (bispecific antibody)
heavy 1: EVQVEQSGLELVKPGASVKISCKTSGYTFTEYTMHWVKQSHGKSLEWIGGINPNNGNTRYNQKFKDKATLTVDKSSRTAYMELHTLTSEDSAVYYCARCGDYDLFFFFAYWGQGTLVTVSAASTKGPSVFPLAPSSKSTSGGTAALGCLVKDYFPEPVTVSWNSGALTSGVHTFPAVLQSSGLYSLSSVVTVPSSSLGTQTYICNVNHKPSNTKVDKKVEPKSCGGGGSGGGGSQAVVTQEPSLTVSPGGTVTLTCGSSTGAVTTSNYANWVQQKPGKSPRGLIGGTNKRAPGVPARFSGSLLGGKAALTISGAQPEDEADYYCALWYSNHWVFGGGTKLTVLGKPGSGKPGSGKPGSGKPGSEVQLVESGGGLVQPGGSLRLSCAASGFTFSTYAMNWVRQAPGKGLEWVGRIRSKANNYATYYADSVKGRFTISRDDSKNTLYLQMNSLRAEDTAVYYCVRHGNFGDSYVSWFAYWGQGTLVTVSSGGGGSGGGGSKTHTCPPCPAPPVAGPSVFLFPPKPKDTLMISRTPEVTCVVVDVKHEDPEVKFNWYVDGVEVHNAKTKPREEQYNSTYRVVSVLTVLHQDWLNGKEYKCKVSNKALPAPIEKTISKAKGQPREPQVYTLPPSREQMTKNQVKLTCLVKGFYPSDIAVEWESNGQPENNYKTTPPVLDSDGSFFLYSKLTVDKSRWQQGNVFSCSVMHEALHNHYTQKSLSLSPGK
heavy 2: EVQVEQSGLELVKPGASVKISCKTSGYTFTEYTMHWVKQSHGKSLEWIGGINPNNGNTRYNQKFKDKATLTVDKSSRTAYMELHTLTSEDSAVYYCARCGDYDLFFFFAYWGQGTLVTVSAASTKGPSVFPLAPSSKSTSGGTAALGCLVKDYFPEPVTVSWNSGALTSGVHTFPAVLQSSGLYSLSSVVTVPSSSLGTQTYICNVNHKPSDTKVDKKVEPKSCDKTHTCPPCPAPPVAGPSVFLFPPKPKDTLMISRTPEVTCVVVDVKHEDPEVKFNWYVDGVEVHNAKTKPREEEYNSTYRVVSVLTVLHQDWLNGKEYKCKVSNKALPAPIEKTISKAKGQPREPQVYTLPPSREEMTKNQVSLTCDVSGFYPSDIAVEWESDGQPENNYKTTPPVLDSDGSFFLYSKLTVDKSRWEQGDVFSCSVMHEALHNHYTQKSLSLSPGK
light: DIVMTQFQKFMSTSVGDRVSVTCKASQNVGTNVAWYQQKPGQSPEALISSASSRFSGVPDRFTGSGSGTDFTLTITNVQSEDLADYFCQQYNSFPFTFGSGTELEIKRTVAAPSVFIFPPSDEQLKSGTASVVCLLNNFYPREAKVQWKVDNALQSGNSQESVTEQDSKDSTYSLSSTLTLSKADYEKHKVYACEVTHQGLSSPVTKSFNRGEC
notes: also called comparator molecule XENP37217

EC50 (human CLDN9): 29.6 mg/L | CLDN9/CLDN6 EC50 ratio (human CLDN6 [2]): 44.9
B3: XENP36956 (antibody, V domains shown)
VH: QVQLVQSGAEVKKPGASVKVSCKTSGYTFTEYTMHWVRQAPGQSLEWMGGIDPNNGNTHYNQKFQGRVTITVDKSASTAYMELSSLRSEDTAVYYCARILYFGRLYFDFWGAGTLVTVSS
VL: DIQMTQSPSSLSASVGDRVTITCQASEDIYNRLAWYQQKPGKVPKLLISGATSLETGVPSRFSGSGSGKDYTFTISSLQPEDIATYYCQQYWSAPLTFGGGTKVEIKR
notes: Bivalent mAb, C6-30 combination variant; also called XENP36956 having H1.22_L1.87; XENP36956 having H1.22_L1.187; copies: 2 + 2
